{
  "source": "patent US20090011981A1",
  "about": "“Novel Inhibitors of Angiogenesis” (K.U. LEUVEN RESEARCH & DEVELOPMENT, priority 2004, published 2009)",
  "key": {"[1]": {"system": "bFGF-induced angiogenesis (rat cornea neovascularization)", "test": "Rat corneal micropocket assay for angiogenesis", "format": "in vivo", "experimental": "In vivo angiogenesis was assessed using the rat cornea micropocket assay as previously described [Addison et al. cited above]. Briefly, reagents were diluted in PBS plus 0.25% serum albumin to their final concentration per pellet of Hydron casting solution (Hydro Med Sciences, New Brunswick N.J.). 5 μl aliquots were pipetted onto the flat surface of a sterile polypropylene specimen container and were allowed to polymerize overnight under UV light in a laminar flow hood. Prior to implantation, the pellets were rehydrated with normal saline. Animals were given 150 mg/kg ketamine and 250 μg/kg atropine, and the corneas were anesthetized with 0.5% proparacaine hydrochloride ophthalmic solution followed by implantation of the Hydron pellet into an intracorneal pocket (1-2 mm from the limbus). Six days after implantation, animals received heparin (1000 U) and ketamine (150 mg/kg) i.p. 30 min prior to sacrifice, followed by perfusion with 10 ml of colloidal carbon via the left ventricle. Corneas were then harvested and photographed. […] Sustained directional ingrowth of capillary sprouts and hairpin loops toward the implant were considered positive neovascularization responses."}, "[2]": {"system": "Human lung microvascular endothelial cells (HMVEC-L)", "test": "Endothelial cell chemotaxis assay (bFGF- or CXCL8-induced HMVEC migration)", "format": "cell-based", "settings": "for inhibition of CXCL8-induced HMVEC chemotaxis: CXCL8 80 ng/ml; for inhibition of the migration of the cells: at a concentration of 50 ng/ml; for inhibition of bFGF-induced HMVEC chemotaxis: bFGF 50 ng/ml; for migration of HMVEC toward bFGF or CXCL8 (FIG. 4 Panel C): test protein 50 ng/ml, bFGF 50 ng/ml or CXCL8 80 ng/ml", "experimental": "Human lung microvascular endothelial cells (HMVEC-L) were obtained from Clonetics (Walkersville, Md.), and were cultured following the manufacturer's instructions in EBM-2 medium supplemented with the EGM-2-MV “bulletkit” containing FCS, ascorbic acid, hydrocortisone, fibroblast growth factor (FGF), vascular endothelial growth factor (VEGF), insulin-like growth factor I (IGF-I) and epidermal growth factor (EGF). Endothelial cell chemotaxis assays were performed as previously described [Addison et al. (2002) J Immunol 165, 5269-5277]. Cells were harvested by trypsinization, resuspended in EBM-2 medium without growth factors with 2% FCS added. An aliquot of 160 μl containing 5×10^5 cells/ml was added to each of the lower wells of a 12-well chemotaxis chamber (Neuro Probe Inc., Cabin John Md.). The chambers were assembled (by placing 0.1% gelatin coated 5 μm pore size filters over the lower wells, followed by a gasket and the upper chamber) and incubated at 37° C. in a CO2 incubator for 2 h in an inverted position. The chambers were then turned upright, and 100 μl aliquots of sample dilutions were added to the upper wells of the chamber. As endothelial cell chemoattractants CXCL8 and bFGF (both from Peprotech) were used. The chambers were placed in a 37° C. CO2 incubator for 2 h at which time the filters were removed, and subjected to Diff-Quik staining. The total number of migrated cells was counted in 15 separate fields of view under 400× power."}, "murine melanoma cells": {"system": "murine melanoma cells", "settings": "systemic treatment, mice injected i.v. with murine melanoma cells; cited from earlier work"}, "[3]": {"test": "Heparin-Sepharose affinity chromatography (heparin affinity)", "format": "binding", "settings": "for salt concentration at elution from heparin-Sepharose column: linear NaCl gradient 0.05-2 M, pH 7.4", "experimental": "For large scale PF4 production, outdated platelets (Red Cross blood transfusion centre, Belgium) were stimulated with 1 U/ml thrombin (Sigma, St. Louis, Mo.) for 2 h at 37° C. in PBS. The conditioned medium was subsequently purified by a purification procedure previously described [Struyf et al (2003), cited above, Van Damme et al. (1992) J Exp Med 176, 59-65; Struyf et al. (2000) in Balkwill, F. ed. Cytokine molecular biology, a practical approach. Oxford, UK, Oxford University Press, pp 73-88]. The conditioned media (1 to 5 liters) were first concentrated and partially purified by adsorption to silica (“Silica Matrex”; pore size 100 A, particle size 35-70 μm; Millipore, Billerica, Mass.; 10 g/l conditioned medium). After 2 h of magnetical stirring at 4° C., the silicic acid was sedimented by centrifugation and subsequently washed once with PBS and once with PBS containing 1 M NaCl pH 7.4. Elution of proteins from the silica matrix was done by magnetically stirring three consecutive times with 100 ml of PBS containing 1.4 M NaCl and 50% ethylene glycol pH 7.4 during 30 min at 4° C. A second elution with 0.3 M glycine/HCl pH 2.0 buffer (2×100 ml) was performed to improve recovery of chemokines. Subsequently, the pooled eluates (500 ml) were dialyzed against equilibration/loading buffer (50 mM Tris/HCl-50 mM NaCl, pH 7.4) before fractionation by heparin-Sepharose chromatography (Amersham Pharmacia Biotech, Uppsala, Sweden). Proteins were eluted from the column in a linear NaCl gradient (0.05-2 M NaCl in the loading buffer; 5 ml-fractions). For all fractions, the protein concentration was determined by a Coomassie blue G-250 binding assay using the Bio-Rad commercial kit (Bio-Rad Laboratories, Hercules, Calif.). […] Purified fractions were analyzed by SDS-PAGE under reducing conditions to determine purity. […]"}, "B16 melanoma tumors": {"system": "B16 melanoma tumors", "test": "Intratumoral injection of B16 melanoma tumors", "format": "in vivo, athymic nu/nu mice", "settings": "1 μg recombinant human PF4var1, 6 intratumoral injections over 2 weeks, B16 melanoma in nu/nu mice", "experimental": "Animal experiments were approved by the local animal ethics committee (University of Leuven), and conducted in conformity with the Belgian and European guidelines for the protection of animals used for scientific purposes. Experiments were performed with 6 to 8 weeks old female athymic nu/nu mice (NMRI background) kept in a specific pathogen-free environment (Elevage Janvier, Le Genest Saint Isle, France). Two consecutive experiments were performed, the first comprising 20 mice, the second 18 mice. B16 melanoma cells in log phase (2×10^6 cells resuspended in 200 μl of PBS) were injected subcutaneously on day 1 in the right dorsal flank. Animals were injected at the tumor site with 50 μl of test sample, i.e. endotoxin-free saline (0.9% NaCl, Baxter, Lessines, Belgium), 5 pg of natural human PF4 or 1 μg of recombinant human PF4var1 in saline. Treatment started on day 3, in total 6 intratumoral injections were administered three times a week over a period of 2 weeks. All animals were observed three times a week, the tumor dimensions were measured with calipers and tumor size was calculated (tumor volume=4/3Πab^2; a is the smallest diameter/2 and b is the largest diameter/2 in millimeters). At the end of the experiments tumor size was calculated more precisely after dissection of the tumor using the formula 4/3Πabc (a, b and c width/2, length/2 and depth/2, respectively). […]"}, "[4]": {"settings": "50 ng of the cytokine alone, six days after implantation"}, "[5]": {"settings": "50 ng combined with bFGF (50 ng)"}},
  "note": "Several values for one entry are separate records, joined by “and”; a condition that tells them apart may be missing. Equal values may be shown once.",
  "data": [
    {"molecule": "bFGF: Fibroblast growth factor used as endothelial cell chemoattractant and angiogenesis inducer (Peprotech) [reference compound]", "values": [
      {"measurement": "No of neg pellets (no neovascularization / total pellets implanted)", "setting": "[1]; [4]", "value": "0/25"},
      {"measurement": "No of pos pellets (angiogenic response / total pellets implanted)", "setting": "[1]; [4]", "value": "25/25"}
    ]},
    {"molecule": "PF4: Platelet Factor 4, CXC chemokine; authentic natural human PF4 purified from platelets as comparator (protein) EAEEDGDLQCLCVKTTSQVRPRHITSLEVIKAGPHCPTAQLIATLKNGRKICLDLQAPLYKKIIKKLLES", "values": [
      {"measurement": "inhibition of CXCL8-induced HMVEC chemotaxis", "setting": "[2]; test protein 300 ng/ml", "value": "failed to inhibit"},
      {"measurement": "inhibition of the migration of the cells", "setting": "[2]", "value": "~80", "unit": "%"},
      {"measurement": "inhibition of migration of HMVEC", "setting": "[2]; at concentrations as high as 300 ng/ml, toward bFGF or CXCL8", "value": "practically no inhibition"},
      {"measurement": "inhibition of bFGF-induced HMVEC chemotaxis", "setting": "[2]; test protein 300 ng/ml", "value": "failed to inhibit"},
      {"measurement": "migration of HMVEC toward bFGF or CXCL8 (FIG. 4 Panel C)", "setting": "[2]", "value": "reduce migration"},
      {"measurement": "dose for optimal inhibition of metastases or lung weight", "setting": "murine melanoma cells", "value": "> 5 mg PF4 per kg of body weight"},
      {"measurement": "% inhibition of bFGF-induced angiogenesis", "setting": "[1]; [5]", "value": 23, "unit": "%"},
      {"measurement": "No of neg pellets (no neovascularization / total pellets implanted)", "setting": "[1]; [5]", "value": "5 of 22 and 5/22"},
      {"measurement": "No of pos pellets (angiogenic response / total pellets implanted)", "setting": "[1]; [5]", "value": "17/22"},
      {"measurement": "No of neg pellets (no neovascularization / total pellets implanted)", "setting": "[1]; [4]", "value": "17/22"},
      {"measurement": "No of pos pellets (angiogenic response / total pellets implanted)", "setting": "[1]; [4]", "value": "5/22"},
      {"measurement": "salt concentration at elution from heparin-Sepharose column", "setting": "[3]", "value": "1.6-1.8 M NaCl"}
    ]},
    {"molecule": "PF4var1: natural and recombinant versions of the human natural variant of the PF4 protein; 70 amino acid mature form, SEQ ID NO: 1 (protein, listed as Homo sapiens, mat_peptide (1)..(70) PFvar1) EAEEDGDLQCLCVKTTSQVRPRHITSLEVIKAGPHCPTAQLIATLKNGRKICLDLQALLYKKIIKEHLES", "values": [
      {"measurement": "tumor growth", "setting": "B16 melanoma tumors", "value": "capable of reducing tumor growth"},
      {"measurement": "inhibition of CXCL8-induced HMVEC chemotaxis", "setting": "[2]; test protein 10-100 ng/ml", "value": "completely blocked"},
      {"measurement": "potency on angiogenesis relative to PF4", "setting": "[2]; PF4var1 versus PF4", "value": 100, "unit": "fold"},
      {"measurement": "inhibition of the migration of the cells", "setting": "[2]", "value": "~100", "unit": "%"},
      {"measurement": "inhibition of bFGF-induced HMVEC chemotaxis", "setting": "[2]; test protein 10-100 ng/ml", "value": "completely blocked"},
      {"measurement": "concentration giving an inhibition of 50% of the migration of HMVEC", "setting": "[2]; chemotaxis of HMVEC toward bFGF or CXCL8", "value": "around 2.5 ng/ml"},
      {"measurement": "migration of HMVEC toward bFGF or CXCL8 (FIG. 4 Panel C)", "setting": "[2]", "value": "reduce migration"},
      {"measurement": "% inhibition of bFGF-induced angiogenesis", "setting": "[1]; [5]", "value": 73, "unit": "%"},
      {"measurement": "No of neg pellets (no neovascularization / total pellets implanted)", "setting": "[1]; [5]", "value": "16 of 22 and 16/22"},
      {"measurement": "No of pos pellets (angiogenic response / total pellets implanted)", "setting": "[1]; [5]", "value": "6/22"},
      {"measurement": "No of neg pellets (no neovascularization / total pellets implanted)", "setting": "[1]; [4]", "value": "21/22"},
      {"measurement": "No of pos pellets (angiogenic response / total pellets implanted)", "setting": "[1]; [4]", "value": "1/22"},
      {"measurement": "heparin binding affinity compared with PF4", "setting": "[3]; based on elution at lower salt concentrations from heparin-Sepharose", "value": "lower affinity than PF4"},
      {"measurement": "salt concentration at elution from heparin-Sepharose column", "setting": "[3]", "value": "1-1.4 M NaCl"}
    ]}
  ]
}
